Here are results for five molecules from PMC5770967, “Phosphorylation of the IDP KID Modulates Affinity for KIX by Increasing the Lifetime of the Complex” (Biophysical Journal, 2017).

As usually defined, the Kd is the concentration at which binding is half-saturated. The term koff denotes the rate constant with which the complex falls apart. A high value points to a short-lived complex.

The target of experiment [1] is KIX KIX (UniProt P45481). To be noted: cited from earlier work.
For experiment [2], the target named is KIX KIX (UniProt P45481). Briefly: NMR. As to conditions: cited from earlier work.
Experiment [3] has as its target T1, KIX domain of CREB-binding protein (UniProt P45481 586-665). Briefly: fluorescence polarisation; fluorescence anisotropy equilibrium binding; 1 uM FITC-peptide with varying KIX, 30 min, 10 C; 100 mM sodium phosphate pH 7.5, 0.05% Tween. As to conditions: both partners purified. A general note: In fluorescence polarisation assays a small probe gives low polarisation when free and higher when bound to something large.

Experiment [4] deals with T1, KIX domain of CREB-binding protein. Briefly: stopped-flow fluorescence association kinetics; pseudo-first-order, KIX in 10-fold or larger excess over FITC-peptide; double exponential fits; 10 C; 100 mM sodium phosphate pH 7.5, 0.05% Tween. To be noted: both partners purified.
Experiment [5] shares this target. In words: stopped-flow fluorescence out-competition dissociation kinetics; KIX:FITC-(p)KID complex rapidly mixed with unlabeled cMybTAD; single exponentials; asymptote gives k_diss; 10 C; 100 mM sodium phosphate pH 7.5, 0.05% Tween. To be noted: both partners purified.
Experiment [6] shares this target. The experiment is described as above. As to conditions: both partners purified. This is another data set of the same source.

Read-outs that look alike come from different tables or passages of the source. Non-standard residues stand in square brackets, D forms with d. No end group written: not given here. *: point of attachment. FITC = O=C1OC2(c3ccc(O)cc3Oc3cc(O)ccc32)c2ccc(NC(=S)*)cc21; pS = N[C@@H](COP(=O)(O)O)C(=O)O

T1 sequence (P45481 586-665): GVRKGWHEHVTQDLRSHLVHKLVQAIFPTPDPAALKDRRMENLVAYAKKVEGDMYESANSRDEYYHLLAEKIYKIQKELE
Chain of KIX KIX (P45481 586-665): as above

Consider pKID29 KID (from UniProt P16220), for which the Kd with KIX KIX [1] was 8.3 µM.

On to pKID KID (from UniProt P15337), for which the Kd in the experiment with KIX KIX [2] is 1.3 µM.

B1: FITC-KID (kinase inducible domain of CREB, residues 116-146, unphosphorylated, N-terminus labeled with FITC) (peptide, UniProt P15337-1 116-146, looked up)
peptide: {FITC}-DSVTDSQKRREILSRRPSYRKILNDLSSDAP
notes: also called unphosphorylated KID; source: synthetic peptide, bought: Biomatik
B1: binding in experiment [3] was characterised by a dissociation constant (Kd) of 29 ± 1 µM. Besides, in experiment [4], the “k_ass,fast (fast phase of association)” value amounted to 7.6e+06 ± 800000 M⁻¹ s⁻¹ and the “k_ass,slow (slow phase of association)” value is 21.2 ± 2.4 s⁻¹. In addition, the “half-life of the complex” value in experiment [5] was roughly 0.01 s. For the same molecule, in experiment [6], the koff came to 66.3 ± 4.9 s⁻¹.

B2: FITC-KID-S133E (KID of CREB, residues 116-146, S133E, N-terminus labeled with FITC) (peptide, UniProt P15337-1 116-146, looked up)
peptide: {FITC}-DSVTDSQKRREILSRRPEYRKILNDLSSDAP
notes: kinase inducible domain (KID) of CREB, UniProt P15337, residues 116-146, with S133E; also called the phosphomimetic; source: synthetic peptide, bought: Biomatik
Take B2: in experiment [3], binding was put at a Kd of 12.3 ± 0.5 µM. Besides, in experiment [4], the “k_ass,fast (fast phase of association)” value was determined as 4.4e+06 ± 200000 M⁻¹ s⁻¹ and the “k_ass,slow (slow phase of association)” value stood at 17 ± 1 s⁻¹. This molecule gave a koff in experiment [6] of 35.6 ± 2.2 s⁻¹.

B3: FITC-pKID (phosphorylated KID of CREB, residues 116-146, N-terminus labeled with FITC) (peptide, UniProt P15337-1 116-146, looked up)
peptide: {FITC}-DSVTDSQKRREILSRRP[pS]YRKILNDLSSDAP
notes: kinase inducible domain (KID) of CREB, UniProt P15337, residues 116-146 (31 residues), phosphorylated at S133; source: synthetic peptide, bought: Biomatik
For B3, the Kd in experiment [3] worked out at 0.11 µM. Moreover, in experiment [4], the “k_ass,fast (fast phase of association)” value was 7.3e+06 ± 300000 M⁻¹ s⁻¹ and the “k_ass,slow (slow phase of association)” value was 24.2 ± 1.4 s⁻¹. For the same molecule, the “half-life of the complex” value in experiment [5] is roughly 1 s. The koff in experiment [6] came out at 0.81 ± 0.01 s⁻¹.
